The stoichiometry N is the number of molecules, sites or subunits per partner or assembly.

From paper PMC5436742, “Structural models of the different trimers present in the core of phycobilisomes from Gracilaria chilensis based on crystal structures and sequences” (PLoS ONE, 2017) come the findings set out here.

The data set deals with the molecule itself. Briefly: SEC; 50 μL of 1 mg/mL purified APC on Superdex200 HR/30, 5 mM phosphate buffer pH7, 0.5 ml/min, calibrated with BioRad standards, elution followed at 651 and 280 nm. In general terms: Size exclusion chromatography separates by hydrodynamic size, large species first.

B1: Allophycocyanin αβ heterodimer from Gracilaria chilensis (complex)
chain 1: MSIITKSIVNADAEARYLSPGELDRIKSFVLSGQRRLRIAQILTDNRELIVKQGGQQLFQKRPDVVSPGGNAYGEEMTATCLRDLDYYLRLVTYGIVAGDVTPIEEIGLVGVKEMYNSLGTPISGVAEGVRSMKNVACSLLAGEDSAEAGFYFDYTLGAMQ
chain 2: MQDAITSVINAADVQGRYLDDNSLDKLRGYFQTGELRVRASATIAANAATIIKDSVAKALLYSDITRPGGNMYTTRRYAACIRDLDYYLRYATYGMLAGDPSILDERVLNGLKETYNSLGVPIGATIQAVQAMKEVTSSLVGPDAGKEMGVYFDYICSGLS
modifications: phycocyanobilin bound to cysteine 81 | phycocyanobilin bound to cysteine 81; methyl-Asn71 (Asm71)
notes: Allophycocyanin α subunit (gene apcA), Gracilaria chilensis; 161 residues; as the chain of m1; Allophycocyanin β subunit (gene apcB), Gracilaria chilensis; as the chain of m2; The αβ heterodimer is the unit that associates with itself into the trimer (αβ)3; also called APC; heterodimer αβ; source: purified from Gracilaria chilensis (method in S4 File)
Turning to B1, the “stoichiometry N” value is 3.
